Positions count from the first letter of the chain named. Names and notes keep the numbering of the source. Values joined by “and” are separate entries in the source; they are usually repeats but may differ in a detail not shown here. Equal values may be shown once.
T1: VEGF165-His (human, UniProt P15692-4 27-191)
T1 construct: also called Human VEGF165 with a 6*His tag
T1 sequence: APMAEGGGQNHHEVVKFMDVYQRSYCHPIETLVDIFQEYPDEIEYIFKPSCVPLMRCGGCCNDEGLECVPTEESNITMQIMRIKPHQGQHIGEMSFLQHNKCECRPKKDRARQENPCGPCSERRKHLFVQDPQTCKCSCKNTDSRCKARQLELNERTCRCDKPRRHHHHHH

B1: 14-Hu-HC+1D11-Hu-LC (antibody, human IgG4 S228P, kappa, V domains shown)
VH: QVQLVQSGAEVKKPGASVKVSCKASGYSFTGYTMNWVRQAPGQGLEWIGLINPYNGDTSYNQKFKGRATVTVDKSTSTAYMELSSLRSEDTAVYYCARWRYTMDYWGQGTLVTVSS
VL: DIVLTQSPASLAVSPGQRATITCRASESVDSYGNSFMHWYQQKPGQPPKLLIYLASNLESGVPARFSGSGSGTDFTLTINPVEADDTANYYCQQNNEDPLTFGGGTKVELKR
notes: Hybrid antibody
B2: 1D11-Hu (antibody, human IgG4 S228P, kappa, V domains shown)
VH: QVQLVQSGAEVKKPGASVKVSCKASGYIFITYWMNWVRQAPGQGLEWIGQIFPASGSTNYNEMFEGRATLTVDTSTSTAYMELSSLRSEDTAVYYCARGDGNYALDAMDYWGQGTLVTVSS
VL: B1 VL
notes: Humanized anti-TGF-β, IgG4 (S228P), kappa; also called 1D11-Hu-HC+1D11-Hu-LC
B3: 1D11-Hu-HC+14-Hu-LC (antibody, human IgG4 S228P, kappa, V domains shown)
VH: B2 VH
VL: B1 VL with S31N, H38N, L50P, L54F, G72R, D98A, L100P, G104Q, L110I
notes: Hybrid antibody
B4: mAb127 (antibody, human IgG4 S228P, kappa, V domains shown)
VH: QVQLVQSGAEVKKPGASVKVSCKASGYTFTSEWMNWVRQAPGQGLEWMGQIFPALGSTNYNEMYEGRVTMTTDTSTSTAYMELRSLRSDDTAVYYCARGIGNYALDAMDYWGQGTLVTVSS
VL: DIQMTQSPSSLSASVGDRVTITCRASESVDFYGNSFMHWYQQKPGKAPKLLIYLASNLESGVPSRFSGSGSGTDFTLTISSLQPEDFATYYCQQNIEDPLTFGGGTKVEIKR
notes: Anti-TGF-β, IgG4 (S228P), kappa; also called mAb127-HC+mAb127-LC
B5: 14-Fab-1D11-IgG4 (bispecific antibody)
heavy: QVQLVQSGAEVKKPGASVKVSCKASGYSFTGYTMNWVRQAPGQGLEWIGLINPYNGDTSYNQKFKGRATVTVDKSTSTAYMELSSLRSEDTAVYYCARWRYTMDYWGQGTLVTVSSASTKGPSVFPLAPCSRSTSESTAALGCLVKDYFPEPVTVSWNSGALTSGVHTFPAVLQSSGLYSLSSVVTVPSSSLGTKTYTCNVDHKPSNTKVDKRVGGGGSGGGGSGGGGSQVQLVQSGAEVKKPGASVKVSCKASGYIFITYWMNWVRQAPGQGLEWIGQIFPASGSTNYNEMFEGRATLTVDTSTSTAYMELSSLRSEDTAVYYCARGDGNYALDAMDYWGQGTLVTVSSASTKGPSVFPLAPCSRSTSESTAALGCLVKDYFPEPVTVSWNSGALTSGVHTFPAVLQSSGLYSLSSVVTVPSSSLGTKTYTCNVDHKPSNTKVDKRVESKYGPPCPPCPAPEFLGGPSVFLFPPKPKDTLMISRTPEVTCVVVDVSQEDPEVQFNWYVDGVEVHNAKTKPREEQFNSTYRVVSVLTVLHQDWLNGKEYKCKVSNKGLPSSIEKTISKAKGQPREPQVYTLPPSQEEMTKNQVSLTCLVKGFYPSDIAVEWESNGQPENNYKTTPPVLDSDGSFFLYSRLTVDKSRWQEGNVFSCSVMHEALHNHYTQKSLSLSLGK
light: DIVLTQSPASLAVSPGQRATITCRASESVDNYGNSFMNWYQQKPGQPPKPLIYFASNLESGVPARFSGSGSRTDFTLTINPVEADDTANYYCQQNNEAPPTFGQGTKVEIKRTVAAPSVFIFPPSDEQLKSGTASVVCLLNNFYPREAKVQWKVDNALQSGNSQESVTEQDSKDSTYSLSSTLTLSKADYEKHKVYACEVTHQGLSSPVTKSFNRGEC
B6: 1D11-Fab-14-IgG4 (bispecific antibody)
heavy: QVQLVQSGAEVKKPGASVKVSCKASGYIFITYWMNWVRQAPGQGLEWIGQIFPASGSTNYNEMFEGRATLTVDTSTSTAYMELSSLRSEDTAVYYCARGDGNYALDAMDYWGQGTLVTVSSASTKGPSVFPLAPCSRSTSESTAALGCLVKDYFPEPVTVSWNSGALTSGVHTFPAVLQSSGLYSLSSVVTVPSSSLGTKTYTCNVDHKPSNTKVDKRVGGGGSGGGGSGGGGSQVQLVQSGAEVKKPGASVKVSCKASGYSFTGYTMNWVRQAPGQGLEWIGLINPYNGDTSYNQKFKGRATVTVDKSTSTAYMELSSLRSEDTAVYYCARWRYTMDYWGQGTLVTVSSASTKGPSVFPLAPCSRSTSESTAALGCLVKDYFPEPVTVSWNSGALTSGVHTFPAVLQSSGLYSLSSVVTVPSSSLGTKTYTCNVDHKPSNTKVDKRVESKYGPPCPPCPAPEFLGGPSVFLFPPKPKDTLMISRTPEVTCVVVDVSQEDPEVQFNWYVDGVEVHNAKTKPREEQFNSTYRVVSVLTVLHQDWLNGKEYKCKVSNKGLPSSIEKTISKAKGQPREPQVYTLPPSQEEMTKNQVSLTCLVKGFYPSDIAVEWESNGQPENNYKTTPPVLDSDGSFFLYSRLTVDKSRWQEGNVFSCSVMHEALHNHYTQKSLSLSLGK
light: B5 light
B7: 127-Fab-14-IgG4 (bispecific antibody)
heavy: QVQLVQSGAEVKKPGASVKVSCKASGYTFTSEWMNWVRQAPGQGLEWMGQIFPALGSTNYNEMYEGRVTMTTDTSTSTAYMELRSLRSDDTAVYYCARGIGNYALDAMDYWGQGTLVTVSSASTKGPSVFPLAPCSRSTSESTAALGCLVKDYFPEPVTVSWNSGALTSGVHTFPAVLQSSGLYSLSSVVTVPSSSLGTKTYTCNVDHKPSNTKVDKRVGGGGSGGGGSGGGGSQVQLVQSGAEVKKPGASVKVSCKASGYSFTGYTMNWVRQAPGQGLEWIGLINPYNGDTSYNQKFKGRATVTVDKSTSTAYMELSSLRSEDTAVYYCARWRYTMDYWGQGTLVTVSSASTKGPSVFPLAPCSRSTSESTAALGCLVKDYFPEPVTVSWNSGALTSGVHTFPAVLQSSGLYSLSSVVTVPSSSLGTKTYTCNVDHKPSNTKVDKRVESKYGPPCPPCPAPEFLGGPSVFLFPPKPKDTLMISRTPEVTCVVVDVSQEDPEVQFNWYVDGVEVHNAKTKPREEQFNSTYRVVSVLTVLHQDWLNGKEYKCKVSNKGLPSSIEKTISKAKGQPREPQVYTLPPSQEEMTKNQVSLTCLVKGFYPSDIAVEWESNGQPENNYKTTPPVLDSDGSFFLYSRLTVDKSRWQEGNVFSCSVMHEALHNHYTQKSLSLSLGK
light: B5 light
B8: 20-Hu-HC+601-LC-D28G (antibody, human IgG4 S228P, kappa, V domains shown)
VH: EVQLVESGGGLVQPGGSLRLSCAASGFVFSNYDMSWVRQAPGKRLEWVATISGGGGYTYYSDSVKGRFTISRDNAKNSLYLQMNSLRAEDTAVYYCASPYGHYGFEYWGQGTLVTVSS
VL: DIQMTQSPSSLSASVGDRVTITCSASQGISNYLNWYQQKPGKAPKVLIYFTSSLHSGVPSRFSGSGSGTDFTLTISSLQPEDFATYYCQQYSTVPWTFGQGTKVEIKR
B9: 20-Hu-HC+601-LC-F50Y (antibody, human IgG4 S228P, kappa, V domains shown)
VH: B8 VH
VL: B8 VL with G28D, F50Y
B10: 20-Hu-HC+601-LC-F71Y (antibody, human IgG4 S228P, kappa, V domains shown)
VH: B8 VH
VL: B8 VL with G28D, F71Y
B11: 20-Hu-HC+601-LC-N34S (antibody, human IgG4 S228P, kappa, V domains shown)
VH: B8 VH
VL: B8 VL with G28D, N34S
B12: 20-Hu-HC+601-LC-T93N (antibody, human IgG4 S228P, kappa, V domains shown)
VH: B8 VH
VL: B8 VL with G28D, T93N
B13: 20-Hu-HC+601-LC-V46L (antibody, human IgG4 S228P, kappa, V domains shown)
VH: B8 VH
VL: B8 VL with G28D, V46L
B14: 20-Hu-HC+601-LC-Y32F (antibody, human IgG4 S228P, kappa, V domains shown)
VH: B8 VH
VL: B8 VL with G28D, Y32F
B15: 19H6-Hu-HC+94-Hu-LC (antibody, human IgG1, kappa, V domains shown)
VH: QVQLVQSGAEVKKPGASVKVSCKGSGYTFTDYAIHWVRQAPGQSLEWIGVFSIYYENINYNQKFKGRATMTVDKSTSTAYMELRSLRSDDTAVYYCARRDGGTINYWGQGTLVTVSS
VL: DVVMTQSPLSLPVTLGQPASISCRSSQSLLHSNGNTYLHWYQQRPGQSPRLLFYKVSNRFSGVPDRFSGSGSGTDFTLKISRVEAEDVGVYFCSQSTHVPWTFGQGTKVEIKR
notes: Hybrid antibody
B16: 94-Hu (antibody, human IgG1, kappa, V domains shown)
VH: QVQLQESGPGLVKPSETLSLTCTVSGFSLSSYDISWIRQPPGKGLEWLGVIWTGGGTNYNSAFMSRLTISKDNSKSQVSLKLSSVTAADTAVYYCVRMDYWGQGTLVTVSS
VL: B15 VL
notes: Humanized anti-human CD137, IgG1, kappa; also called 94-Hu-HC+94-Hu-LC
B17: 94-Hu-HC+19H6-Hu-LC (antibody, human IgG1, kappa, V domains shown)
VH: B16 VH
VL: B15 VL with L30V, F53I, V99I
notes: Hybrid antibody
B18: 94-Fab-19H6-IgG1-LALA (bispecific antibody)
heavy: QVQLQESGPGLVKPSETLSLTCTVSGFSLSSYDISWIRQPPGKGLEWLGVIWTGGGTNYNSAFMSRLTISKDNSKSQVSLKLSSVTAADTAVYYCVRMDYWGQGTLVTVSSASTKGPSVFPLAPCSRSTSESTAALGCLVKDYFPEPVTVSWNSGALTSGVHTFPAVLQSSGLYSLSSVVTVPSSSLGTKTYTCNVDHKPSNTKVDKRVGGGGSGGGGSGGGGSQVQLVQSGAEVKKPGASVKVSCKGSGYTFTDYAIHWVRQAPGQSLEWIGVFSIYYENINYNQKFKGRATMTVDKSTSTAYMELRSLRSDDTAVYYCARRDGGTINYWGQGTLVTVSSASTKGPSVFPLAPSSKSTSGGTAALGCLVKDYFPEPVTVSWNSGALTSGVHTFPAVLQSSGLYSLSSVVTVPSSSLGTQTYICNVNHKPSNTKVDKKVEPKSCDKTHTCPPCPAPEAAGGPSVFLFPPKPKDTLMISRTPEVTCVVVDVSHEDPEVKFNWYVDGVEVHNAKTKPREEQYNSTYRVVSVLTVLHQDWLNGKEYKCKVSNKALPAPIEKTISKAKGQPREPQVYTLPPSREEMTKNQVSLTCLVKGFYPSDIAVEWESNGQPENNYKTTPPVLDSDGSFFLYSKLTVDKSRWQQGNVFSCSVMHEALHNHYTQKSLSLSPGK
light: DVVMTQSPLSLPVTLGQPASISCRSSQSLVHSNGNTYLHWYQQRPGQSPRLLIYKVSNRFSGVPDRFSGSGSGTDFTLKISRVEAEDVGVYFCSQSTHIPWTFGQGTKVEIKRTVAAPSVFIFPPSDEQLKSGTASVVCLLNNFYPREAKVQWKVDNALQSGNSQESVTEQDSKDSTYSLSSTLTLSKADYEKHKVYACEVTHQGLSSPVTKSFNRGEC
B19: 19H6-Fab-94-IgG1-LALA (bispecific antibody)
heavy: not shown
light: B18 light
B20: 601-HC+20-Hu-LC (antibody, human IgG1, kappa, V domains shown)
VH: EVQLVESGGGLVQPGGSLRLSCAASGYTFTNYGMNWVRQAPGKGLEWVGWINTYTGEPTYAADFKRRFTFSLDTSKSTAYLQMNSLRAEDTAVYYCAKYPHYYGSSHWYFDVWGQGTLVTVSS
VL: DIQMTQSPSSLSASVGDRVTITCSASQGISNFLSWYQQKPGKTVKLLIYYTSSLHSGVPSRFSGSGSGTDYTFTISSLQPEDIATYYCQQYSNLPWTFGQGTKVEIKR
notes: Hybrid antibody
B21: 601-HC+601-LC-D28G (antibody, human IgG1, kappa, V domains shown)
VH: B20 VH
VL: B8 VL
B22: 601-HC+601-LC-F50Y (antibody, human IgG1, kappa, V domains shown)
VH: B20 VH
VL: B8 VL with G28D, F50Y
B23: 601-HC+601-LC-F71Y (antibody, human IgG1, kappa, V domains shown)
VH: B20 VH
VL: B8 VL with G28D, F71Y
B24: 601-HC+601-LC-N34S (antibody, human IgG1, kappa, V domains shown)
VH: B20 VH
VL: B8 VL with G28D, N34S
B25: Anti-CD137-Hu (antibody, human IgG4 S228P, kappa, V domains shown)
VH: QVQLVQSGAEVKKPGASVKVSCKASGYTFSSYWMHWVRQAPGQGLEWMGEINPGNGHTNYNEKFKSRVTLTVDKSTSTVYMELSSLRSEDTAVYYCARSFTTARGFAYWGQGTLVTVSS
VL: EIVMTQSPDFQSVTPKEKVTITCRASQTISDYLHWYQQKPDQSPKLLIKYASQSISGIPSRFSGSGSGSDFTLTINSLEAEDAATYYCQDGHSFPPTFGQGTKVEIKR
notes: Humanized anti-human CD137, IgG4 (S228P), kappa; also called humanized 4B4-1-1
B26: 609-Fab-137-IgG4 (bispecific antibody)
heavy: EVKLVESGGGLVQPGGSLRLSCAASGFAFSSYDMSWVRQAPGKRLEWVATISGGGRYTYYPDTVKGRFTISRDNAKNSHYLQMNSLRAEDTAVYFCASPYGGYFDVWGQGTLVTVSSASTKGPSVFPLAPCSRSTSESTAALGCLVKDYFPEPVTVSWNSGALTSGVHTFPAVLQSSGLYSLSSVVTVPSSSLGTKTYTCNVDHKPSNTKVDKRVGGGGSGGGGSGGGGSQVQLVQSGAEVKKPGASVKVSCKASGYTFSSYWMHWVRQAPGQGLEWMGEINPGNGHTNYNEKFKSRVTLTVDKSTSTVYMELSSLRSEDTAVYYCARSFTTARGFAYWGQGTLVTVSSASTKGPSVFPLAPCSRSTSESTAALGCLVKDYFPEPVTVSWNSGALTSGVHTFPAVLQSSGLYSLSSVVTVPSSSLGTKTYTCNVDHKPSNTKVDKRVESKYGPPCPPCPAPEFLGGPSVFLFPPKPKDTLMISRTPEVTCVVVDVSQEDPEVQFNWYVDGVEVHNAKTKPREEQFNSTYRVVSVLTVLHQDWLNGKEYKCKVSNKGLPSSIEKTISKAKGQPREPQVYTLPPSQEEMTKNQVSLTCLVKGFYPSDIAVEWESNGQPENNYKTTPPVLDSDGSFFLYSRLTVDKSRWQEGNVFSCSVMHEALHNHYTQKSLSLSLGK
light: EIVMTQSPDFQSVTPKEKVTITCRASQTISDYLHWYQQKPDQSPKLLIKYASQSISGIPSRFSGSGSGSDFTLTINSLEAEDAATYYCQDGHSFPPTFGQGTKVEIKRTVAAPSVFIFPPSDEQLKSGTASVVCLLNNFYPREAKVQWKVDNALQSGNSQESVTEQDSKDSTYSLSSTLTLSKADYEKHKVYACEVTHQGLSSPVTKSFNRGEC
B27: 137-Fab-609-IgG4 (bispecific antibody)
heavy: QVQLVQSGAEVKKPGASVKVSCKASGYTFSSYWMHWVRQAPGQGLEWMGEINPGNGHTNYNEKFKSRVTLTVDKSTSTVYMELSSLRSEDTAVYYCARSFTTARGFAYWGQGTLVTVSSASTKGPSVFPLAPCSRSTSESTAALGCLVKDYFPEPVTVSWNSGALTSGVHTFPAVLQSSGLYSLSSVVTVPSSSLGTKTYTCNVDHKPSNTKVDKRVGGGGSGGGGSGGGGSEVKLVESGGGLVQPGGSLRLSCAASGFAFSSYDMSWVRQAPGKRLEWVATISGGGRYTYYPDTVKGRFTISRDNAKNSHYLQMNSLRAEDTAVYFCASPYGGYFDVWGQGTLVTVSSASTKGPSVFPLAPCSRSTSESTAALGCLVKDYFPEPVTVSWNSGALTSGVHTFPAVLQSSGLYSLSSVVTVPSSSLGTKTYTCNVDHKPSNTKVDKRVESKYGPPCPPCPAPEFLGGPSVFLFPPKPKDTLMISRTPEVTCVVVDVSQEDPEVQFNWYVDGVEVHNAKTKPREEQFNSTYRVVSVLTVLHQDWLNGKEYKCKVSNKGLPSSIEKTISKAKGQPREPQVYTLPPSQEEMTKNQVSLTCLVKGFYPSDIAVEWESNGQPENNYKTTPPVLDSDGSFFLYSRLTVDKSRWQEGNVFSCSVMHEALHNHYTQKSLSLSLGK
light: B26 light
B28: Anti-CD137-Hu-HC+609-LC (antibody, human IgG4 S228P, kappa, V domains shown)
VH: B25 VH
VL: EIVLTQSPATLSLSPGERATLSCRASQSISNFLHWYQQKPGQAPRLLIKYASQSISGIPARFSGSGSGTDFTLTISSLEPEDFAVYFCQQSNSWPHTFGQGTKVEIKR
notes: Hybrid antibody

Target: TGF-β1 (Sino Biological, Cat. No. 10804-HNAC) (UniProt P01137 279-390)
Test: ELISA, plate coated with TGF-β1

Sequence of TGF-β1 (Sino Biological, Cat. No. 10804-HNAC) (P01137 279-390 limits assumed): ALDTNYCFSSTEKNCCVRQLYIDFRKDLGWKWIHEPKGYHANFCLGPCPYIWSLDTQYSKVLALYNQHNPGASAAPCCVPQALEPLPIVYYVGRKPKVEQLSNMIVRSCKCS

B1: no binding.

In the case of B2, the EC50 is reported as 0.0662 nM and 0.134 nM.
In the case of B3, the EC50 is reported as 0.525 nM and 1.27 nM.

First: B4
Second: B5
The EC50 of the first is 17-fold lower: 0.0414 nM for the first, 0.699 nM for the second.

First: B6
Second: B7
The EC50 of the first is 3.4-fold higher: 0.363 nM for the first, 0.108 nM for the second.

Target: T2, PD1-His (human, UniProt Q15116 25-170)
T2 construct: extracellular domain; In-house protein; also called extracellular domain protein of human PD-1 with a 6*His tag
Test: ELISA, plate coated with PD1-His

T2 sequence (Q15116 other isoform, or with tags, fused parts or gaps): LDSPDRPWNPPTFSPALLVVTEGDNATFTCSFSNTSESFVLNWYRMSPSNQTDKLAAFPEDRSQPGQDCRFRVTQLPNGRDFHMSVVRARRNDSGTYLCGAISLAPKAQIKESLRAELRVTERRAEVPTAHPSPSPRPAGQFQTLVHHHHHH

B8 and B9 are within 1.5-fold of each other in EC50: 0.485 nM for the first, 0.525 nM for the second.

Compared with B10, B11 is 5.9-fold lower in EC50: 1.03 nM for the first, 0.175 nM for the second.

B12 and B13 are within 1.5-fold of each other in EC50: 0.486 nM for the first, 0.533 nM for the second.

B14 and B5 are within 1.5-fold of each other in EC50: 0.456 nM for the first, 0.437 nM for the second.

Compared with B6, B7 is 2-fold higher in EC50: 2 nM for the first, 3.96 nM for the second. The first is the more potent here.

B1: no binding.
B2: no binding.
B3: no binding.

Target: T3, HER2-ECD-His (human, UniProt P04626 23-652)
T3 construct: extracellular domain; Bought; also called recombinant protein of the extracellular segment of human Her-2 with a polyhistidine tag (ACROBiosystems HE2-H5225); not shown: polyhistidine tag
Test: ELISA, plate coated with HER2-ECD-His

B15 and B18 are within 1.5-fold of each other in EC50: 0.139 nM for the first, 0.158 nM for the second.

B19 gave an EC50 of 0.12 nM.

B16: no binding.
B17: no binding.

Target: T1, VEGF165-His
Test: ELISA, plate coated with VEGF165-His

Compared with B20, B21 is 62-fold lower in EC50: 8.22 nM for the first, 0.133 nM for the second. The second is the more potent here.

B22 and B23 are within 1.5-fold of each other in EC50: 0.14 nM for the first, 0.148 nM for the second.

B24 gave an EC50 of 0.208 nM.

Target: T4, PD1-ECD-His (human, UniProt Q15116 25-170)
T4 construct: extracellular domain; Bought; also called recombinant protein of the extracellular segment of human PD-1 with a polyhistidine tag (Sino Biological 10377-H08H); not shown: polyhistidine tag
Test: ELISA, plate coated with PD1-ECD-His

T4 sequence (Q15116 25-170): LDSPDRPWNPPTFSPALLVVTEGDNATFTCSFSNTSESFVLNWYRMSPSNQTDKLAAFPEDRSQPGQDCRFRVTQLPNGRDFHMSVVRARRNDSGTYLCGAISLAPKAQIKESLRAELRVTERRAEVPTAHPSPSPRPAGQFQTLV

B25: no binding.
B28: no binding.

Going from B26 to B27, the EC50 rises from 0.229 nM to 1.42 nM (6.2-fold). The first is the more potent here.

Target: T5, CD137-ECD-Fc (human, UniProt Q07011 24-186)
T5 construct: extracellular domain; Bought; also called recombinant protein of the extracellular segment of human CD137 with Fc tags (Sino Biological 10041-H02H); not shown: Fc tag
Test: ELISA, plate coated with CD137-ECD-Fc

T5 sequence (Q07011 24-186): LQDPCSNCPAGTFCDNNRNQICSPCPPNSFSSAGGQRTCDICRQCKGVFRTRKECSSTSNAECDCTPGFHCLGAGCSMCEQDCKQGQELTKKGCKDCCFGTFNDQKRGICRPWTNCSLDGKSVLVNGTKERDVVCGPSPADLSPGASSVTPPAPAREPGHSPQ

B15: no binding.
B28: no binding.

First: B16
Second: B17
The EC50 of the first is 1.6-fold lower: 0.391 nM for the first, 0.634 nM for the second.

First: B18
Second: B19
The EC50 of the first is 110-fold lower: 0.241 nM for the first, 27.6 nM for the second. The first is the more potent here.

B25 and B26 are within 1.5-fold of each other in EC50: 0.461 nM for the first, 0.357 nM for the second.

In the case of B27, the EC50 is reported as 0.242 nM.

Reference: patent publication US20220259330A1 (SUNSHINE GUOJIAN PHARMACEUTICAL SHANGHAI, published 2022)
